System: MS2 coat protein
Experiment: apparent KD of MS2 coat protein; designed switch direction (-1 OFF switch, 1 ON switch): -1; higher = weaker reporter binding
Summary of the method: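 The buffer was Tris-HCl pH 7.5 with KCl, MgCl2, BSA, DTT, tRNA and Tween-20. In it, SNAP-549-labelled MS2 coat protein was titrated in doubling steps from 0.7 or 1.5 nM to 3 µM over chip-bound RNA switches transcribed by stalled E. coli RNA polymerase on Illumina chips. Apparent KD is the per-design median over clusters of curve fits to normalised fluorescence.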

[1] = input ligand: microRNA oligo, concentration not stated

Row | Sequence | apparent KD of MS2 coat protein (input ligand: FMN 200 uM) [nM] | apparent KD of MS2 coat protein [1] [nM] | apparent KD of MS2 coat protein (input ligand: none) [nM] | apparent KD of MS2 coat protein (Eterna round: R95, input ligand: microRNA oligo, concentration not stated) [nM]
1 | GCGGACUAGUACGUGAGUACUGAGACAUGAGGAUCACCCAUGUAGGAUAUCGAUUCGAAACGAAUCGAGAAGGGCAUAGUCCGC [JL denovo 10] (Eterna round: R96, puzzle: Exclusion NG 3) | 19.7 | 18.9 | 21.2 | –
2 | GCGGACUGGAUCGUGAGAUCCGAGACAUGAGGAUCACCCAUGUAGGAUAUCGAUUGCUUUGCAGUCGAGAAGGGCGUGGUCCGC [JL denovo 16] (Eterna round: R96, puzzle: Exclusion NG 3) | 54.6 | 44.9 | 59.3 | –
3 | GCGGAGUGAGGAUAUAGAACUUAAGGUACCAAUUAGGUACCCUAGAAGGCACAUGAGGAUCACCCAUGUACCGC [Eli x4 4.01] (Eterna round: R97, puzzle: Exclusion 4) | 26.5 | – | 28.6 | –
4 | GCGGGAUAGCAAGGAUAUCCCGAGUCGCAAGGAAACAUCCACAUGAGGAUCACCCAUGUGGCUCUGGAGAAGGUGCGACGCAAA [Onveceanti] (Eterna round: R96, puzzle: Exclusion NG 2) | 10.3 | 9.8 | 13.4 | –
5 | GCGGGCUUUUUGCUCGUUUACAUGAGGAUCACCCAUGUGUCUUCGCGCCCGGGCCCGGGCGGGCCCGGGCCCGGGCG [-52.3, -76.4, A 8%] (Eterna round: R97, puzzle: Sensor, turn-off variant 1) | 36.1 | – | 41.5 | –
6 | GCGGGUUUUUUGUUCGUUUACAUGAGGAUCACCCAUGUGUCUUCGCGUUCGGGUUCGGGCGGGCUUGGGCUUGGGCG [-26.2, -50.6, A 8%] (Eterna round: R97, puzzle: Sensor, turn-off variant 1) | 47.4 | – | 47.8 | –
7 | GCGUGACAUGAGGAUCACCCAUGUGAGGAUAUCUGGACACUCUUUAUUUUAGAUGUCCAGAGAAGGCACAUGCU [Ex1-3: 5Z] (puzzle: Exclusion 1) | – | – | – | 220
8 | GCGUGGGCCGCAGGAUAUGAGGCCGUGGGUUCACCCAAACACACAUGAGGAUCACCCAUGUGUCAUCAGAAGGGCGAGCCUACU [Sozasora] (Eterna round: R96, puzzle: Exclusion NG 2) | 18.9 | 17.5 | 21.4 | –
9 | GCUAGACAUGUCAGGAUAUGCUGUACCUUGGUACAGCAGAAGGGACAUGAGGAUCACCCAUGUGCCUAUCUAGC [JL-BMX4-4.05] (Eterna round: R97, puzzle: Brourd's mod of Exclusion 4) | 308 | – | 43.6 | –
10 | GCUAGCCAUGUCAGGAUAUGCUGUACCUUGGUACAGCAGAAGGGACAUGAGGAUCACCCAUGUGCCUAGCUAGC [JL-BMX4-4.03] (Eterna round: R97, puzzle: Brourd's mod of Exclusion 4) | 197 | – | 27.1 | –
11 | GCUAGUCAUGUCAGGAUAUGCAGAACCUUGGUUCUGCAGAAGGGACAUGAGGAUCACCCAUGUGCCUAACUAGC [Mat - Exclusion 4 - JL Mod - D15] (Eterna round: R97, puzzle: Brourd's mod of Exclusion 4) | 294 | – | 40.3 | –
12 | GCUAGUCAUGUCAGGAUAUGCUGUACCUUGGUACAGCAGAAGGGACAUGAGGAUCACCCAUGUGCCUAGCUAGC [JL-BMX4-4.07] (Eterna round: R97, puzzle: Brourd's mod of Exclusion 4) | 412 | – | 37.7 | –
13 | GCUAUUAGAGGAUAUACAUGAGGAUCACCCAUGUGGUCAAGUCGGUGCCAACUGUUAGGUAGAAGGCUGGAGCC [Eternabot (L1) Solution 76] (Eterna round: R97, puzzle: Exclusion 3) | 44.8 | – | 49.7 | –
14 | GCUCGUGGGCAAGGAUAUCCUACGCUGUUCUGGUUCGUGUCUGUUACAUGAGGAUCACCCAUGUGGGAGAAGGUGCACCAGGGU [Design 50] (Eterna round: R96, puzzle: Exclusion NG 2) | 22.8 | 12.3 | 18.3 | –
15 | GCUCGUUUUGUCAGGAUAUUGAGUCAGCUUAAGCUCGAGAAGGGACAUGAGGAUCACCCAUGUACCGCACAAUU [BmEX4 B.29] (Eterna round: R97, puzzle: Brourd's mod of Exclusion 4) | 16.3 | – | 11.1 | –
16 | GCUGCAAGAGGAUAUACAUGAGGAUCACCCAUGUGGGAUCGCGUUCUGGAUCAGGACUGUAGAAGGUUUGUGCG [Eternabot (L1) Solution 63] (Eterna round: R97, puzzle: Exclusion 3) | 286 | – | 91.3 | –

From the supplement of paper PMC9170038
